The results in this text go back to article PMC4854733 (The Journal of Experimental Medicine, 2016).

Data set [1] deals with the molecule itself. Kind of data set: negative-stain electron microscopy.
Data set [2] deals with the molecule itself. Kind of data set: fluorescence polarisation. Background: In fluorescence polarisation assays a small probe gives low polarisation when free and higher when bound to something large.
Data set [3] concerns the molecule itself. Kind of data set: SEC. (In gel filtration, larger molecules generally elute earlier.)

B1: ASC^CARD-SUMO (domain or fragment)
chain: AAKPGLHFIDQHRAALIARVTNVEWLLDALYGKVLTDEQYQAVRAEPTNPSKMRKLFSFTPAWNWTCKDLLLQALRESQSYLVEDLERS
In the case of B1, in data set [1], the binding result was “binds”.

B2: fluorescently labeled ASC^CARD-SUMO (domain or fragment)
chain: AAKPGLHFIDQHRAALIARVTNVEWLLDALYGKVLTDEQYQAVRAEPTNPSKMRKLFSFTPAWNWTCKDLLLQALRESQSYLVEDLERS
modifications: fluorophore joined by sortase at the C-terminal sortase motif
Take B2: the binding result in data set [2] is “binds”.

B3: GFP-ASC^CARD (domain or fragment)
chain: AAKPGLHFIDQHRAALIARVTNVEWLLDALYGKVLTDEQYQAVRAEPTNPSKMRKLFSFTPAWNWTCKDLLLQALRESQSYLVEDLERS
As to B3, the binding result in data set [3] is reported as “binds”.
